From the supplement of paper PMC5949888

System: Saccharomyces cerevisiae PS128 hsf1 delta, HSF1(1-493) fusion
Experiment: growth estimate (transactivation domain function in HSF1 fusion, heat-shock survival) (a.u. (slope of normalised read count over time)); higher = stronger growth at 37°C, i.e. more transactivation activity
Conditions: library: design library
Method in brief: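 The growth estimate is the slope, from a robust linear fit over time, of read counts scaled to sample totals and starting count. These counts came from Illumina MiSeq sequencing of PCR-amplified inserts, run as six barcoded replicates of one experiment. The inserts encoded designed transactivation-domain oligos fused to yeast HSF1 (amino acids 1–493) in an hsf1-deleted strain, replica-plated on –trp 5-FOA plates and incubated at 30°C or 37°C for 0, 2, 4, 6 and 8 days.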

Sequence	growth estimate
DELSWIKELLEKDG	0.278
QQNGEIAQLWDRN	-0.121
EDDDEFSLGDSML	< -0.25
KELSWIIELLEKDG	-0.245
DPLSWIIELLEKDG	-0.102
PEFPGIELQELKELQALLQQ	< -0.25
VADAIWEELLSEDL	0.167
DFDLDMLGDFDLKMLG	-0.116
EDDREFSLWDSML	-0.175
EDLYSILWSDAY	0.452
DFDLDMKGDFDLDMLG	0.067
DALSWIIELLEKDG	< -0.25
MLSSHGFSVDTSKLLDLFSP	-0.143
EDLYSILWSRVY	-0.0908
DLDESWDYIPETTE	< -0.25
MLSSHGFSVDTGALLDLFSP	-0.207
VADDIWEELLSEDA	-0.0522
EDDDEFSKWDSML	-0.228
QQNGEIAQLADFN	-0.24
TMDDVYNPLFDD	< -0.25
LFGYDFLFGNDFA	1.68
EDLYKILWSDVY	-0.0738
DELSWIIELLEKRG	< -0.25
EKLYSILWSDVY	-0.183

Sequence	growth estimate
VADDGWEELLSEDL	< -0.259
VADDKWEELLSEDL	-0.236
VADDIWEELLSRDL	6.53
EDLYSILWSDGY	0.303
VADDIWEELLSEDK	-0.0473
PFPDTQDDFLKWWRSEEAP	0.0281
PEFPGIELQELQELQALLAQ	< -0.25
EDDDEFALWDSML	0.128
TRDDVYNYLFDD	-0.222
PFPDTQDDFLKWWRSPEAQ	-0.176
LFDYDKLFGNDFA	-0.159
RADDIWEELLSEDL	0.445
MLSSHGFSVDTSALLDLFPP	-0.106
DFDLDMLGDFDLDMLR	6.97
EFNDLGDLDFILSN	-0.0268
TMGDVYNYLFDD	0.113
TMDDVYNYLKDD	< -0.25
VADDIWEEKLSEDL	< -0.25
DLDESWDYIFPTTE	0.0438
EFNDLLRLDFILSN	< -0.253
QQNGRIAQLWDFN	-0.248
EPNDLLDLDFILSN	0.229
EFRDLLDLDFILSN	0.421
DLDESRDYIFETTE	-0.153

Sequence	growth estimate
MLSSHGFSVDTSALGDLFSP	-0.213
MLSSHGFSVDTSALPDLFSP	-0.23
EDLYGILWSDVY	0.0695
DELSWIIELLERDG	1.05
VADDPWEELLSEDL	-0.214
EDDDEGSLWDSML	< -0.25
LFDYDFRFGNDFA	-0.0564
PEFPGIELQELQERQALLQQ	< -0.25
DLDESWDKIFETTE	-0.06
EFNDLLDLDFKLSN	-0.099
PEFPGIELQELQELQALLRQ	-0.245
PFPDTQKDFLKWWRSEEAQ	< -0.25
DFDLDMLGDFDLGMLG	0.517
PFPDTQDDFLAWWRSEEAQ	2.37
PEFPGIELQERQELQALLQQ	-0.248
PFDLDMLGDFDLDMLG	4.25
MLSSHGFSVDTSALLDLGSP	-0.228
EDLYSILWADVY	-0.181
VADDIWEALLSEDL	8.8
TMDDVYNYLFDA	0.681
MLSSHGFSVDTSALLDLPSP	< -0.25
PPFPGIELQELQELQALLQQ	-0.187
VADDIWEELLSEDR	0.315
LFDYDALFGNDFA	0.627

Sequence	growth estimate
GFNDLLDLDFILSN	-0.0099
EDLYSILWSDKY	-0.125
PEFKGIELQELQELQALLQQ	< -0.25
DLDESWDYIFEKTE	-0.233
LFDYDFLFGKDFA	2.49
DFDLDMLGDKDLDMLG	-0.188
PFPDTQDGFLKWWRSEEAQ	< -0.25
VAPDIWEELLSEDL	3.05
DELSWIIELLEKDR	0.276
VADDIAEELLSEDL	-0.224
VADDRWEELLSEDL	< -0.25
MLSSHGFSVDTSALLDLFKP	-0.179
PFPDTQDDFLKWWRSKEAQ	-0.183
DFDKDMLGDFDLDMLG	0.964
PEPPGIELQELQELQALLQQ	< -0.25
DELSWIIELLGKDG	-0.173
DADESWDYIFETTE	-0.164
EDLYSILWSDVK	0.0539
PEFPGIELAELQELQALLQQ	-0.181
EFNDLLDLDFILSG	1.41
VADDIWEPLLSEDL	-0.234
MLSSKGFSVDTSALLDLFSP	-0.115
EDRYSILWSDVY	-0.176
PFPDTQDDFLKWWRSEGAQ	-0.0427

Sequence	growth estimate
RQNGEIAQLWDFN	< -0.25
MLSSHGFSVDKSALLDLFSP	-0.249
EDDDEKSLWDSML	-0.0523
DFDLDMLPDFDLDMLG	0.485
DFDLDMLGGFDLDMLG	2.09
PAPDTQDDFLKWWRSEEAQ	0.0134
EDDDEFSPWDSML	-0.228
PFPDTQDDFLKWWRSEEAK	-0.25
PFPGTQDDFLKWWRSEEAQ	< -0.25
EFNDLLDLDFIPSN	0.874
LFDYRFLFGNDFA	-0.216
MLSSHGFSVDTSALLGLFSP	-0.207
DLPESWDYIFETTE	-0.108
DFDLDMLGDFDLDGLG	2.79
MLSSHGFSVDTSALLDLFAP	-0.0921
LFDKDFLFGNDFA	-0.177
DRDLDMLGDFDLDMLG	0.301
GLDESWDYIFETTE	1.28
TMDDVYGYLFDD	0.586
LFDYDFLFGRDFA	3.41
QQNGEKAQLWDFN	-0.22
TPDDVYNYLFDD	< -0.25
DFDLDMLGKFDLDMLG	1.77
PEFPGIEPQELQELQALLQQ	0.114

Sequence	growth estimate
LFDYDFLFANDFA	2.92
DERSWIIELLEKDG	< -0.25
DFDLDMLGDPDLDMLG	10.1
PFPDTQDDFLKWWRSEAAQ	-0.154
EDDDERSLWDSML	< -0.25
DFDLDMLGDFDLDKLG	-0.158
DGLSWIIELLEKDG	-0.173
MGSSHGFSVDTSALLDLFSP	0.215
QQNGEGAQLWDFN	< -0.25
MLSSHGFSVATSALLDLFSP	-0.234
EDDDEFSLWDRML	-0.15
DFDLDMLGDFDLDRLG	0.414
KEFPGIELQELQELQALLQQ	< -0.25
PEFPGIKLQELQELQALLQQ	-0.02
QQNKEIAQLWDFN	-0.241
DLDEKWDYIFETTE	< -0.25
MLSSHGFSVDTSALLDLFSG	-0.181
MKSSHGFSVDTSALLDLFSP	-0.215
PEFPGIELKELQELQALLQQ	-0.217
DELSKIIELLEKDG	< -0.25
ALSSHGFSVDTSALLDLFSP	0.065
QQKGEIAQLWDFN	< -0.25
DELSWIIELLEKDA	2.02
PEFPGIALQELQELQALLQQ	-0.223

Sequence	growth estimate
PFPDTQDDFLKWWPSEEAQ	3.12
TMDAVYNYLFDD	0.158
DLDESWRYIFETTE	0.0438
DELGWIIELLEKDG	-0.244
GFDYDFLFGNDFA	8.74
DFDLDMLGDFDADMLG	21.1
EFNDLLDLDFRLSN	0.0126
QQAGEIAQLWDFN	< -0.25
PEFPGIELQELQELQALLQP	-0.215
EFNDLLDLDFILKN	2.1
EDLYSIAWSDVY	< -0.25
QQRGEIAQLWDFN	< -0.25
DLDESWDGIFETTE	0.5
PEFPGRELQELQELQALLQQ	< -0.25
GDDDEFSLWDSML	1.64
TMDDVYNKLFDD	< -0.25
PFPDTQDDFGKWWRSEEAQ	< -0.25
PFDYDFLFGNDFA	2.14
DLDESWDYIFETAE	1.08
DFDLDMLGRFDLDMLG	1.8
PFGDTQDDFLKWWRSEEAQ	0.304
EKDDEFSLWDSML	-0.193
EFNDLLDKDFILSN	-0.227
RFDLDMLGDFDLDMLG	0.634

Sequence	growth estimate
EDDDEFSLWDSMK	< -0.25
QQNGEIAQLWRFN	-0.166
PGFPGIELQELQELQALLQQ	-0.0439
DLDPSWDYIFETTE	0.39
KDDDEFSLWDSML	0.429
DADLDMLGDFDLDMLG	0.604
LFDYDFLPGNDFA	-0.232
PFPDTQDDFLKWWRKEEAQ	-0.247
EDLYSILWSPVY	-0.241
PFPDTQDDFLKWWASEEAQ	4.59
DELSWIAELLEKDG	0.851
PFPDPQDDFLKWWRSEEAQ	-0.0255
DLDESWDYIAETTE	-0.174
QQNGGIAQLWDFN	-0.189
AFPDTQDDFLKWWRSEEAQ	-0.0486
PFPDTQDDFRKWWRSEEAQ	-0.247
PFPPTQDDFLKWWRSEEAQ	-0.215
DELSWIIELLEKDG	1.7
MLSSHGFKVDTSALLDLFSP	< -0.25
MLSSHGFSVDTSGLLDLFSP	0.0909
